In patent US5508261A, “Analogs of glycoprotein hormones having altered receptor binding specificity and activity and methods for preparing and using same” (University of Medicine & Dentistry of New Jersey, priority 1995, dated 1996):

What was measured:
[1] = tested on: bovine testes FSH receptors; assay: Inhibition of 125I-hFSH binding to bovine testes tissue homogenates (radioligand receptor assay); settings: concentration of recombinant hFSH for 50% inhibition of 125I-hFSH binding divided by that of analog
Description: (§1) The term "N.D." means not determined because concentrations of analog were not employed high enough to detect 50% inhibition.
(§2) An aliquot of the ligation mixture was taken and used to transform DH5-alpha strain E. coli. (obtained from Bethesda Research Laboratories, Gaithersburg, Md.). Plasmid DNAs from ampicillin-resistant DH5-alpha clones were screened by digestion with BglII (which is unique to vectors containing the cassette) and EcoRI (which cuts in the vector). Positive clones were identified by the presence of two fragments (approximately 0.8 Kbp and 2.9 Kbp). […] After the DNA was subjected to a dideoxy sequencing procedure to confirm that it encoded "GT" (Table 1), the plasmid DNA was then cotransfected into COS-7 cells (obtained from the American Type Culture Collection) along with pSVL-hCG-alpha, a pSVL-based plasmid encoding the human glycoprotein hormone alpha-subunit (10, 21), using a DEAE-dextran procedure (10).

[2] = tested on: rat luteal ovarian LH receptors; assay: Inhibition of 125I-hCG binding to rat corpora luteal LH receptors (radioligand receptor assay); settings: concentration of recombinant hCG for 50% inhibition of 125I-hCG binding divided by that of analog
Description: as §1, §2

Activity at FSH RECEPTORS relative to that of hFSH [1]: 0.18
Activity at LH RECEPTORS relative to that of hCG [2]: 0.53
B1: eCG: equine gonadotropin control (text calls the control eLH, equine lutropin) (protein)
chain: SRGPLRPLCRPINATLAAEKEACPICITFTTSICAGYCPSMVRVMPAALPAIPQPVCTYRELRFASIRLPGCPPGVDPMVSFPVALSCHCGPCQIKTTDCGVFRDQPLACAPQASSSSKDPPSQPLTSTSTPTPGASRRSSHPLPIKTS
